These results are taken from doi:10.1101/2021.04.27.441571.

Experiment [1] addresses wild type (WT) talin R3 domain.
Experiment [2] concerns the target talin R3-IVVI domain.
Experiment [3] addresses talin R3-IVVI domain. This is another data set of the same source.
For experiment [4], the target named is talin R3-IVVI domain. The source holds these as a separate data set.
In experiment [5] the target is talin R3-IVVI domain. The source holds these as a separate data set.

“DnaJ (from UniProt P08622 1-376) (natural protein)” yielded an intersection force of R3-WT with DnaJ; without chaperone ∼6 pN in experiment [1] of 4 pN. This molecule also displayed a percent of force-ramp events of R3-IVVI with hysteresis, with DnaJ; control ∼9% in experiment [2] of 86%.
Consider “DnaK (from UniProt P0A6Y8 1-638) (natural protein)”, for which, in experiment [1], the intersection force of R3-WT with DnaK; without chaperone ∼6 pN was determined as 4 pN. In addition, in experiment [3], the unfolding force of R3-IVVI in the presence of DnaK, DnaJ and ADP (DnaKJ-ADP) stood at 6 pN; the unfolding force of R3-IVVI with DnaK after addition of ATP (apo-DnaK: ∼6 pN) amounted to 7.5 pN. Moreover, in experiment [4], the intersection force of R3-IVVI with DnaK-ADP complex (chevron plot) was 7.1 pN and the intersection force of R3-IVVI with DnaK-ATP (chevron plot) stood at 7.6 pN. The percent of force-ramp events of R3-IVVI with hysteresis, with DnaK; control ∼9% in experiment [2] was determined as 91%.
For the molecule “Hsp70 (from UniProt P0DMV8 1-641) (natural protein)”, the intersection force of talin R3-IVVI (chevron plot), with Hsp70; control 9.8 pN in experiment [5] turned out to be 7.2 pN.
In experiment [5], “Hsp40 (from UniProt P25685 1-340) (natural protein)” yielded an intersection force of talin R3-IVVI (chevron plot), with Hsp40; control 9.8 pN of 7.8 pN.

B1: DsbA (oxidized) (enzyme)
chain: AQYEDGKQYTTLEKPVAGAPQVLEFFSFFCPHCYQFEEVLHISDNVKKKLPEGVKMTKYHVNFMGGDLGKDLTQAWAVAMALGVEDKVTVPLFEGVQKTQTIRSASDIRDVFINAGIKGEEYDAAWNSFVVKSLVAQQEKAAADVQLRGVPAMFVNGKYQLNPQGMDTSNMDVFVQQYADTVKYLSEKK
modifications: oxidized (0.3% H2O2 overnight)
In turn, B1 came in with an intersection force of R3-WT with DsbA; without chaperone ∼6 pN in experiment [1] of 10 pN.
